Experimental data: the supplement of paper PMC11246515
± gives the standard deviation of the averaged measurements.

Experiment: total protein half-life in vivo (active degradation + dilution); higher = more stable protein
[1] = E. coli NCM3722 delta-clpP delta-lon delta-hslV, growth: N-lim chemostat, doubling time 6 h
[2] = E. coli NCM3722 delta-clpP, growth: N-lim chemostat, doubling time 6 h
[3] = E. coli NCM3722 delta-hslV, growth: N-lim chemostat, doubling time 6 h
[4] = E. coli NCM3722 delta-lon, growth: N-lim chemostat, doubling time 6 h
[5] = E. coli NCM3722 delta-smpB, growth: N-lim chemostat, doubling time 6 h
[6] = wild type E. coli NCM3722, growth: C-lim chemostat, doubling time 3 h
[7] = wild type E. coli NCM3722, growth: C-lim chemostat, doubling time 12 h
[8] = wild type E. coli NCM3722, growth: N-lim chemostat, doubling time 6 h
[9] = wild type E. coli NCM3722, growth: N-lim chemostat, doubling time 12 h
[10] = wild type E. coli NCM3722, growth: P-lim chemostat, doubling time 12 h
[11] = wild type E. coli NCM3722, growth: C-lim chemostat, doubling time 6 h
[12] = wild type E. coli NCM3722, growth: P-lim chemostat, doubling time 6 h

Sequence	total protein half-life in vivo [1] [h]	total protein half-life in vivo [2] [h]	total protein half-life in vivo [3] [h]	total protein half-life in vivo [4] [h]	total protein half-life in vivo [5] [h]	total protein half-life in vivo [6] [h]	total protein half-life in vivo [7] [h]	total protein half-life in vivo [8] [h]	total protein half-life in vivo [9] [h]	total protein half-life in vivo [10] [h]	total protein half-life in vivo [11] [h]	total protein half-life in vivo [12] [h]
MNLTLKESLVTRSRVFSPWTAFYFLQSLLINLGLGYPFSLLYTAAFTAILLLLWRTLPRVQKVLVGVSSLVAACYFPFAQAYGAPNFNTLLALHSTNMEESTEILTIFPWYSYLVGLFIFALGVIAIRRKKENEKARWNTFDSLCLVFSVATFFVAPVQNLAWGGVFKLKDTGYPVFRFAKDVIVNNNEVIEEQERMAKLSGMKDTWTVTAVKPKYQTYVVVIGESARRDALGAFGGHWDNTPFASSVNGLIFADYIAASGSTQKSLGLTLNRVVDGKPQFQDNFVTLANRAGFQTWWFSNQGQIGEYDTAIASIAKRADEVYFLKEGNFEADKNTKDEALLDMTAQVLAQEHSQPQLIVLHLMGSHPQACDRTQGKYETFVQSKETSCYLYTMTQTDDLLRKLYDQLRNSGSSFSLVYFSDHGLAFKERGKDVQYLAHDDKYQQNFQVPFMVISSDDKAHRVIKARRSANDFLGFFSQWTGIKAKEINIKYPFISEKKAGPIYITNFQLQKVDYNHLGTDIFDPKP	4.78 ± 0.78	4.97 ± 0.21	5.49 ± 1.6	5.01	3.31 ± 0.29	2.94 ± 0.12	10.2 ± 1.1	4.59 ± 0.6	10.2	8.42		
MLWGFVFVSFISKELALGQSEYISWVKCTSWLSNFVNLRGLRQPDGRPLYEYHATNDEYTQLTQLLRAVGQSQSNICNRDFAACFVLFCSEWYRRDYERQCGWTWDPIYKKIGISFTATELGTIVPKGMEDYWLRPIRFYESERRNFLGTLFSEGGLPFRLLKESDSRFLAVFSRILGQYEQAKQSGFSALSLARAVIEKSALPTVFSEDTSVELISHMADNLNSLVLTHNLINHKEPVQQLEKVHPTWRSEFPIPLDDETGTHFLNGLLCAASVEAKPRLQKNKSTRCQFYWSEKHPDELRVIVSLPDEVSFPVTSEPSTTRFELAICEDGEEVSGLGPAYASLENRQATVRLRKSEVRFGRQNPSAGLSLVARAGGMIVGSIKLDDSEIAIGEVPLTFIVDADQWLLQGQASCSVRSSDVLIVLPRDNSNVAGFDGQSRAVNVLGLKALPVKGCQDVTVTANETYRIRTGREQISIGRFALNGKRASWVCHPDETFIGVPKVISTLPDIQSIDVTRYTC								5.44				
MMQHQVNVSARFNPETLERVLRVVRHRGFHVCSMNMAAASDAQNINIELTVASPRSVDLLFSQLNKLVDVAHVAICQSTTTSQQIRA [P0ADG1]		0.96		0.664		0.829 ± 0.59	0.533	0.823	0.848 ± 0.14	0.967 ± 0.53	0.318	0.343
MRNTLIPILVAICLFITGVAILNIQLWYSAKAEYLAGARYAANNINHILEEASQATQTAVNIAGKECNLEEQYQLGTEAALKPHLRTIIILKQGIVWCTSLPGNRVLLSRIPVFPDSNLLLAPAIDTVNRLPILLYQNQFADTRILVTISDQHIRGALNVPLKGVRYVLRVADDIIGPTGDVMTLNGHYPYTEKVHSTKYHFTIIFNPPPLFSFYRLIDKGFGILIFILLIACAAAFLLDRYFNKSATPEEILRRAINNGEIVPFYQPVVNGREGTLRGVEVLARWKQPHGGYISPAAFIPLAEKSGLIVPLTQSLMNQVARQMNAIASKLPEGFHIGINFSASHIISPTFVDECLNFRDSFTRRDLNLVLEVTEREPLNVDESLVQRLNILHENGFVIALDDFGTGYSGLSYLHDLHIDYIKIDHSFVGRVNADPESTRILDCVLDLARKLSISIVAEGVETKEQLDYLNQNYITFQQGYYFYKPVTYIDLVKIILSKPKVKVVVE	3.79			4.37	6.19 ± 0.68			4.59	11.9 ± 0.31			
MKLYNLKDHNEQVSFAQAVTQGLGKNQGLFFPHDLPEFSLTEIDEMLKLDFVTRSAKILSAFIGDEIPQEILEERVRAAFAFPAPVANVESDVGCLELFHGPTLAFKDFGGRFMAQMLTHIAGDKPVTILTATSGDTGAAVAHAFYGLPNVKVVILYPRGKISPLQEKLFCTLGGNIETVAIDGDFDACQALVKQAFDDEELKVALGLNSANSINISRLLAQICYYFEAVAQLPQETRNQLVVSVPSGNFGDLTAGLLAKSLGLPVKRFIAATNVNDTVPRFLHDGQWSPKATQATLSNAMDVSQPNNWPRVEELFRRKIWQLKELGYAAVDDETTQQTMRELKELGYTSEPHAAVAYRALRDQLNPGEYGLFLGTAHPAKFKESVEAILGETLDLPKELAERADLPLLSHNLPADFAALRKLMMNHQ	5.07 ± 0.61	4.78 ± 0.058	5.09 ± 0.18	5.28 ± 0.25	4.57 ± 0.11	3.25 ± 0.27	11.9 ± 0.91	4.989 ± 0.048	8.57 ± 0.57	11.9 ± 0.51	6.01 ± 0.15	5.76 ± 0.32
MSRINKFVLTVSLLIFIMISAVACGIYTQMVKERVYSLKQSVIDTAFAVANIAEYRRSVAIDLINTLNPTEEQLLVGLRTAYADSVSPSYLYDVGPYLISSDECIQVKEFEKNYCADIMQVVKYRHVKNTGFISFDGKTFVYYLYPVTHNRSLIFLLGLERFSLLSKSLAMDSENLMFSLFKNGKPVTGDEYNAKNAIFTVSEAMEHFAYLPTGLYVFAYKKDVYLRVCTLIIFFAALVAVISGASCLYLVRRVINRGIVEKEAIINNHFERVLDGGLFFSAADVKKLYSMYNSAFLDDLTKAMGRKSFDEDLKALPEKGGYLCLFDVDKFKNINDTFGHLLGDEVLMKVVKILKSQIPVDKGKVYRFGGDEFAVIYTGGTLEELLSILKEIVHFQVGSINLSTSIGVAHSNECPTVERLKMLADERLYKSKKNGRAQISWQ					5.51 ± 1.1			6.47 ± 1.1		13.1 ± 1.4	5.63 ± 1.6	6.08 ± 0.31
MNRRRKLLIPLLFCGAMLTACDDKSAENAAAMTPEVGVVTLSPGSVNVLSELPGRTVPYEVAEIRPQVGGIIIKRNFIEGDKVNQGDSLYQIDPAPLQAELNSAKGSLAKALSTASNARITFNRQASLLKTNYVSRQDYDTARTQLNEAEANVTVAKAAVEQATINLQYANVTSPITGVSGKSSVTVGALVTANQADSLVTVQRLDPIYVDLTQSVQDFLRMKEEVASGQIKQVQGSTPVQLNLENGKRYSQTGTLKFSDPTVDETTGSVTLRAIFPNPNGDLLPGMYVTALVDEGSRQNVLLVPQEGVTHNAQGKATALILDKDDVVQLREIEASKAIGDQWVVTSGLQAGDRVIVSGLQRIRPGIKARAISSSQENASTESKQ	5.76 ± 0.3	6.22 ± 0.68	6.15 ± 0.1	6.24 ± 0.35	5.05 ± 0.34	2.98	> 16	5.92 ± 0.32	10.6 ± 0.88	8.12 ± 0.25	6.09	3.99 ± 0.38
MRLTAKQVTWLKVCLHLAGLLPFLWLVWAINHGGLGADPVKDIQHFTGRTALKFLLATLLITPLARYAKQPLLIRTRRLLGLWCFAWATLHLTSYALLELGVNNLALLGKELITRPYLTLGIISWVILLALAFTSTQAMQRKLGKHWQQLHNFVYLVAILAPIHYLWSVKIISPQPLIYAGLAVLLLALRYKKLRSLFNRLRKQVHNKLSV									8.91			
MFQQQKDWETRENAFAAFTMGPLTDFWRQRDEAEFTGVDDIPVRFVRFRAQHHDRVVVICPGRIESYVKYAELAYDLFHLGFDVLIIDHRGQGRSGRLLADPHLGHVNRFNDYVDDLAAFWQQEVQPGPWRKRYILAHSMGGAISTLFLQRHPGVCDAIALTAPMFGIVIRMPSFMARQILNWAEAHPRFRDGYAIGTGRWRALPFAINVLTHSRQRYRRNLRFYADDPTIRVGGPTYHWVRESILAGEQVLAGAGDDATPTLLLQAEEERVVDNRMHDRFCELRTAAGHPVEGGRPLVIKGAYHEILFEKDAMRSVALHAIVDFFNRHNSPSGNRSTEV	5.43 ± 1.2	> 8	4.87 ± 0.73	4.93 ± 0.22	4.57 ± 0.31	3.13 ± 0.43	11.3 ± 1.8	4.42 ± 0.28	8.56 ± 0.72	10.8 ± 0.91	6.52 ± 0.38	6.17 ± 0.69
MSVPLILTILAGAATFIGAFLGVLGQKPSNRLLAFSLGFAAGIMLLISLMEMLPAALAAEGMSPVLGYGMFIFGLLGYFGLDRMLPHAHPQDLMQKSVQPLPKSIKRTAILLTLGISLHNFPEGIATFVTASSNLELGFGIALAVALHNIPEGLAVAGPVYAATGSKRTAILWAGISGLAEILGGVLAWLILGSMISPVVMAAIMAAVAGIMVALSVDELMPLAKEIDPNNNPSYGVLCGMSVMGFSLVLLQTAGIG [P0A8H3]	1.91	1.38	1.59 ± 0.2	2.14 ± 0.3	1.65 ± 0.083	0.41		1.7	2.45		0.83	
MNEQSQAKSPEALRAMVAGTLANFQHPTLKHNLTTLKALHHVAWMDDTLHVELVMPFVWHSAFEELKEQCSAELLRITGAKAIDWKLSHNIATLKRVKNQPGINGVKNIIAVSSGKGGVGKSSTAVNLALALAAEGAKVGILDADIYGPSIPTMLGAENQRPTSPDGTHMAPIMSHGLATNSIGYLVTDDNAMVWRGPMASKALMQMLQETLWPDLDYLVLDMPPGTGDIQLTLAQNIPVTGAVVVTTPQDIALIDAKKGIVMFEKVEVPVLGIVENMSVHICSNCGHHEPIFGTGGAEKLAEKYHTQLLGQMPLHISLREDLDKGTPTVISRPESEFTAIYRQLADRVAAQLYWQGEVIPGEISFRAV [P0AF08]	5.1 ± 1	4.454 ± 0.02	3.96 ± 0.12	4.15 ± 0.34	3.876 ± 0.013	2.87 ± 0.2	9.46 ± 1.4	3.71 ± 0.21	5.9098 ± 0.00063	9.96 ± 0.64	5.22 ± 0.23	5.19 ± 0.43
MTMYATLEEAIDAAREEFLADNPGIDAEDANVQQFNAQKYVLQDGDIMWQVEFFADEGEEGECLPMLSGEAAQSVFDGDYDEIEIRQEWQEENTLHEWDEGEFQLEPPLDTEEGRAAADEWDER		6.11	3.33	3.3 ± 0.71	3.22 ± 0.1	2.35 ± 0.29	6.75 ± 1.1	3.33 ± 0.17	4.03	7.26	3.94 ± 0.066	3.9 ± 0.2
MKKYLALALIAPLLISCSTTKKGDTYNEAWVKDTNGFDILMGQFAHNIENIWGFKEVVIAGPKDYVKYTDQYQTRSHINFDDGTITIETIAGTEPAAHLRRAIIKTLLMGDDPSSVDLYSDVDDITISKEPFLYGQVVDNTGQPIRWEGRASNFADYLLKNRLKSRSNGLRIIYSVTINMVPNHLDKRAHKYLGMVRQASRKYGVDESLILAIMQTESSFNPYAVSRSDALGLMQVVQHTAGKDVFRSQGKSGTPSRSFLFDPASNIDTGTAYLAMLNNVYLGGIDNPTSRRYAVITAYNGGAGSVLRVFSNDKIQAANIINTMTPGDVYQTLTTRHPSAESRRYLYKVNTAQKSYRRR [P0C066]	6.29 ± 0.53		6.24 ± 0.8		4.92 ± 0.2	3.27 ± 0.4	9.66 ± 1.5	6.34 ± 0.94	12.6 ± 2.2		5.3 ± 0.52	7.12
MVLMIVSGRSGSGKSVALRALEDMGFYCVDNLPVVLLPDLARTLADREISAAVSIDVRNMPESPEIFEQAMSNLPDAFSPQLLFLDADRNTLIRRYSDTRRLHPLSSKNLSLESAIDKESDLLEPLRSRADLIVDTSEMSVHELAEMLRTRLLGKRERELTMVFESFGFKHGIPIDADYVFDVRFLPNPHWDPKLRPMTGLDKPVAAFLDRHTEVHNFIYQTRSYLELWLPMLETNNRSYLTVAIGCTGGKHRSVYIAEQLADYFRSRGKNVQSRHRTLEKRKP [P0A894]	5.6 ± 1.1	4.58 ± 0.2	4.92 ± 0.47	5.04 ± 0.64	4.453 ± 0.016	3.02 ± 0.095	11.5 ± 0.81	4.48 ± 0.31	7.88 ± 1.8	12.1 ± 0.55	6.62 ± 1.3	5.95 ± 0.11
